Substrate: CC(C)[C@H](NC(=O)[C@H](CO)NC(=O)CNC(=O)CNC(=O)[C@@H](NC(=O)[C@@H](NC(=O)[C@H](CCCNC(=N)N)NC(=O)CNC(=O)[C@@H]1CCCN1C(=O)[C@H](CO)NC(=O)[C@H](CCCCN)NC(=O)[C@@H](N)CCCCN)C(C)C)C(C)C)C(=O)N[C@@H](C)C(=O)N[C@@H](Cc1c[nH]cn1)C(=O)O
Test: Kinetics of cleavage of synthetic peptides by t-PA (HPLC, Eadie-Hofstee analysis)
Format: biochemical
Conditions: other: hydrolysis of peptide by t-PA
Experimental: Concentrations of functional t-PA and u-PA were measured by active site titration with 4-methylumbelliferyl p-guanidinobenzoate (Jameson, G., et al., (1973) Biochem. J. 131, 107-117) using a Perkin-Elmer LS 50B Luminescence Fluorometer as previously described (Madison, E. L., et al., (1995) J. Biol. Chem. 270: 7558-7562). In addition, the enzymes were titrated with a standard PAI-1 preparation that had been previously titrated against a trypsin primary standard. Total enzyme concentrations were measured by ELISA.
Individual phage stocks were prepared and digested with no enzyme, t-PA, u-PA, or u-PA in the presence of 1 mM amiloride, a specific inhibitor of u-PA. Kinetic-data were obtained by incubating various concentrations of peptide with a constant enzyme concentration to achieve between 5 and 20% cleavage of the peptide in each reaction. For assays with u-PA, enzyme concentration was either 815 or 635 nM. For assays with t-PA enzyme concentration was 700 nM. […] The buffer used in these assays has been described (Madison, E. L., et al., 1995). Reactions were stopped by addition of triflouroacetic acid to 0.33% or by freezing on dry ice. Cleavage of the 13 and 14 residue peptides was monitored by reverse phase HPLC as described (Madison, E. L., et al., 1995). The 4-6 residue peptides were acylated at their amino termini and amidated at their carboxyl termini. Cleavage of the 4-6 residue peptides was monitored by hydrophilic interaction HPLC chromatography (HILIC) (Alpert, A. J. (1990) J. Chromatog. 499, 177-196.) using a polyhydroxyaspartamine column from PolyLC (Columbia, Md.). Buffer A was 50 mM triethylamine phosphate in 10% acetonitrile and buffer B was 10 mM triethylamine phosphate in 80% acetonitrile. Peptides were eluted by a gradient which was varied from 100% Buffer B to 100% Buffer A during a 13 minute interval. The percent of cleaved peptide was calculated by dividing the area under the product peaks by the total area under substrate and product peaks. […] Errors were determined as described (Taylor, J. R., 1982) An introduction to error analysis. […]

B1: t-PA (Homo sapiens) (protein)
chain: SYQVICRDEKTQMIYQQHQSWLRPVLRSNRVEYCWCNSGRAQCHSVPVKSCSEPRCFNGGTCQQALYFSDFVCQCPEGFAGKCCEIDTRATCYEDQGISYRGTWSTAESGAECTNWNSSALAQKPYSGRRPDAIRLGLGNHNYCRNPDRDSKPWCYVFKAGKYSSEFCSTPACSEGNSDCYFGNGSAYRGTHSLTESGASCLPWNSMILIGKVYTAQNPSAQALGLGKHNYCRNPDGDAKPWCHVLKNRRLTWEYCDVPSCSTCGLRQYSQPQFRIKGGLFADIASHPWQAAIFAKHRRSPGERFLCGGILISSCWILSAAHCFQERFPPHHLTVILGRTYRVVPGEEEQKFEVEKYIVHKEFDDDTYDNDIALLQLKSDSSRCAQESSVVRTVCLPPADLQLPDWTECELSGYGKHEALSPFYSERLKEAHVRLYPSSRCTSQHLLNRTVTDNMLCAGDTRSGGPQANLHDACQGDSGGPLVCLNDGRMTLVGIISWGLGCGQKDVPGVYTKVTNYLDWIRDNMRP
  Km: 15 mM
  kcat: 0.0043 s⁻¹
  kcat/Km: 0.29 M⁻¹ s⁻¹

From patent US20030186329A1, “Use of substrate subtraction libraries to distinguish enzyme specificities” (The Scripps Research Institute, priority 1998, published 2003)
